The subject of this data set is Escherichia coli TOP10. Kind of data set: shrunken log2 fold change of peptide-encoding DNA abundance (4.5 h post-induction vs induction); higher = less antimicrobial activity (less host growth inhibition). To be noted: time post-induction: 4.5 h; library: site-saturation at positions 5, 18, 19, 20.
For RRIRVRPPRLPRPRPRPIIWPRP, the “shrunken log2 fold change” value was -0.098.
RRIRARPPRLPRPRPRPRNRPRP: the “shrunken log2 fold change” value was determined as 0.0657.
Next, RRIRARPPRLPRPRPRPMNLPRP: -0.313; RRIRERPPRLPRPRPRPICNPRP: -1.25; RRIRNRPPRLPRPRPRPSTHPRP: -0.274.
Next, RRIRTRPPRLPRPRPRPAFWPRP: 0.26; RRIRLRPPRLPRPRPRPTQVPRP: 0.452; RRIRGRPPRLPRPRPRPIPVPRP: 0.0104.
Take RRIRNRPPRLPRPRPRPNRHPRP: the “shrunken log2 fold change” value was -0.17.
Take RRIRHRPPRLPRPRPRPDIVPRP: the “shrunken log2 fold change” value is -0.38.
For the sequence RRIRYRPPRLPRPRPRPLFYPRP, the “shrunken log2 fold change” value is -0.335.
As for RRIRLRPPRLPRPRPRPGLYPRP, the “shrunken log2 fold change” value was -0.476.
In the case of RRIRGRPPRLPRPRPRPIYPPRP, the “shrunken log2 fold change” value came to 0.119.
In the case of RRIRKRPPRLPRPRPRPFIGPRP, the “shrunken log2 fold change” value is -0.0147.
In the case of RRIRIRPPRLPRPRPRPKVQPRP, the “shrunken log2 fold change” value was -0.491.
With RRIRWRPPRLPRPRPRPCEVPRP, the “shrunken log2 fold change” value was -0.00149.
As for RRIRERPPRLPRPRPRPFLMPRP, the “shrunken log2 fold change” value was -0.209.
With RRIRSRPPRLPRPRPRPNRPPRP, the “shrunken log2 fold change” value is -0.0188.
As to RRIRFRPPRLPRPRPRPNEFPRP, the “shrunken log2 fold change” value is -0.0262.
As for RRIRCRPPRLPRPRPRPVAHPRP, the “shrunken log2 fold change” value is -0.277.
The value for RRIRERPPRLPRPRPRPDMPPRP was -0.447; that for RRIRERPPRLPRPRPRPVIEPRP was -0.201; that for RRIRKRPPRLPRPRPRPFLIPRP was -0.19.
The value for RRIRERPPRLPRPRPRPGNRPRP was -0.0677; that for RRIRHRPPRLPRPRPRPMPEPRP was 0.283; that for RRIRQRPPRLPRPRPRPELEPRP was -0.0293.
The value for RRIRYRPPRLPRPRPRPEHNPRP was -0.0212.
For the sequence RRIRPRPPRLPRPRPRPFKYPRP, the “shrunken log2 fold change” value was -0.0171.
For RRIRERPPRLPRPRPRPYWFPRP, the “shrunken log2 fold change” value was -1.02.
Next, RRIRKRPPRLPRPRPRPNRCPRP: 0.0393; RRIRHRPPRLPRPRPRPSFRPRP: -0.15; RRIRYRPPRLPRPRPRPMDTPRP: -0.216.
Next, RRIRTRPPRLPRPRPRPVVDPRP: 0.452; RRIRVRPPRLPRPRPRPHQYPRP: -0.278.
Consider RRIRQRPPRLPRPRPRPPQGPRP, for which the “shrunken log2 fold change” value is 0.434.
Next, RRIRNRPPRLPRPRPRPIWLPRP: 0.0648; RRIRHRPPRLPRPRPRPVRWPRP: 0.98.
The value for RRIRGRPPRLPRPRPRPWVRPRP was 0.151.
For RRIRWRPPRLPRPRPRPGCCPRP, the “shrunken log2 fold change” value worked out at 0.659.
Take RRIRFRPPRLPRPRPRPMSYPRP: the “shrunken log2 fold change” value is -0.138.
In the case of RRIRSRPPRLPRPRPRPFQPPRP, the “shrunken log2 fold change” value is -0.133.
As to RRIRGRPPRLPRPRPRPMFIPRP, the “shrunken log2 fold change” value stood at 0.0775.
As for RRIRMRPPRLPRPRPRPTLGPRP, the “shrunken log2 fold change” value was 0.685.
With RRIRRRPPRLPRPRPRPQYQPRP, the “shrunken log2 fold change” value was -0.207.
As for RRIRSRPPRLPRPRPRPKVDPRP, the “shrunken log2 fold change” value was 0.093.
For the sequence RRIRKRPPRLPRPRPRPRWFPRP, the “shrunken log2 fold change” value was 0.295.
For the sequence RRIRWRPPRLPRPRPRPWRYPRP, the “shrunken log2 fold change” value was -0.262.
Consider RRIRGRPPRLPRPRPRPRVGPRP, for which the “shrunken log2 fold change” value worked out at 1.02.
As for RRIRCRPPRLPRPRPRPNDIPRP, the “shrunken log2 fold change” value is -0.762.
RRIRPRPPRLPRPRPRPKCVPRP: the “shrunken log2 fold change” value was found to be 0.0688.
Regarding RRIRTRPPRLPRPRPRPDNFPRP, the “shrunken log2 fold change” value is -0.231.
With RRIRRRPPRLPRPRPRPYDRPRP, the “shrunken log2 fold change” value was -0.164.
As for RRIRCRPPRLPRPRPRPVNKPRP, the “shrunken log2 fold change” value is -0.196.
Turning to RRIRPRPPRLPRPRPRPLNSPRP, the “shrunken log2 fold change” value was -0.262.
With RRIRFRPPRLPRPRPRPAHPPRP, the “shrunken log2 fold change” value amounted to 0.267.
On to RRIRCRPPRLPRPRPRPEDWPRP, for which the “shrunken log2 fold change” value was 0.595.
Next, RRIRDRPPRLPRPRPRPNWIPRP: -0.389; RRIRKRPPRLPRPRPRPMHQPRP: 0.003.
Turning to RRIRPRPPRLPRPRPRPFSCPRP, the “shrunken log2 fold change” value was -0.106.
As to RRIRWRPPRLPRPRPRPYEDPRP, the “shrunken log2 fold change” value is -0.231.
Turning to RRIRRRPPRLPRPRPRPEQSPRP, the “shrunken log2 fold change” value was found to be 0.353.
RRIRQRPPRLPRPRPRPMYIPRP: the “shrunken log2 fold change” value was -0.0435.

Values taken from the supplement of paper PMC9112550, “Optimization of the antimicrobial peptide Bac7 by deep mutational scanning” (BMC Biology, 2022).
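Further: peptides expressed intracellularly from a pBAD plasmid library in pooled LB shake-flask culture, induced with 0.3% L-arabinose, DNA abundance read by NGS, three biological replicates, DESeq2 with apeglm shrinkage.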
